Test results from patent US20180155451A1 (published 2018).

T1: FcγRIIa H (human, UniProt P12318 34-217)
T1 construct: extracellular domain; also called FcgRIIa H; FcγRIIa type H; not shown: His tag attached to the C terminus
T1 sequence (looked up): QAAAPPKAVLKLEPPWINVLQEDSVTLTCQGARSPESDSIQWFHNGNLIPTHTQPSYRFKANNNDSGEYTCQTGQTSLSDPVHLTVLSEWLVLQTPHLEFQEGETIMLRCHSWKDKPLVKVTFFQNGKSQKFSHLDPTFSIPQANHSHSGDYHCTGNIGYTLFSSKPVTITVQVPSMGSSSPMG

T2: FcγRIIb (human, UniProt P31994 43-217)
T2 construct: extracellular domain; also called FcgRIIb; 2b; not shown: His tag attached to the C terminus
T2 sequence (looked up): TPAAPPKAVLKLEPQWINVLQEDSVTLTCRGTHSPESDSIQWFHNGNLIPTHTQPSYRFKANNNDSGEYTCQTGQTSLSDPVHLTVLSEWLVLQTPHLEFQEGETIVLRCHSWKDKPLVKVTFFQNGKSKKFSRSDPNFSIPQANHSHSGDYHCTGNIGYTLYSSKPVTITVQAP


How the values were obtained:
FcγRIIa H = biological target: T1, FcγRIIa H; test: SPR (Biacore), antibody captured, FcγR as analyte; binding relative to GpH7-A5/GpH7-B3/GpL16-k0 = 100
FcγRIIb = biological target: T2, FcγRIIb; test: as above
[1] = biological target: T3, FcγRIa extracellular domain with C-terminal His tag (human, UniProt P12314 16-292); test: SPR Biacore, antibody captured, FcγRIa analyte; vs GpH7-B3/GpL16-k0 = 100
T3 construct: extracellular domain; Expressed in FreeStyle293 cells; analyte in Biacore; also called FcgRI; FcgRIa
T3 sequence (P12314 16-292): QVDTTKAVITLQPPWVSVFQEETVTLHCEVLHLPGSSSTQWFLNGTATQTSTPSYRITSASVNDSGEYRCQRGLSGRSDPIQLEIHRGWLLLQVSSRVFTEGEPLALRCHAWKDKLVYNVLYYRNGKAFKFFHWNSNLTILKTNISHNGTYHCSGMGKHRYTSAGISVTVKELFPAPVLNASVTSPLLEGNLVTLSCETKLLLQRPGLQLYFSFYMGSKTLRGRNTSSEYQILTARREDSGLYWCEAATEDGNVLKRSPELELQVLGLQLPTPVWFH

Binder | He/Con_2aH (FcγRIIa H) | He/Con_2b (FcγRIIb) | Ho/Con_1a [1]
GpH7-A5/GpH7-B3 variant S324_16H/GpL16-k0 (antibody, human IgG1, kappa, Heterodimerized IgG1, mutation in the GpH7-B3 chain only; also called He Ab) heavy 1: not shown heavy 2: not shown light: DIVMTQSPLSLPVTPGEPASISCQASESLVHSNRNTYLHWYLQKPGQSPQLLIYKVSNRFSGVPDRFSGSGSGTDFTLKISRVEAEDVGVYYCSQNTHVPPTFGQGTKVEIERTVAAPSVFIFPPSDEQLKSGTASVVCLLNNFYPREAKVQWKVDNALQSGNSQESVTEQDSKDSTYSLSSTLTLSKADYEKHKVYACEVTHQGLSSPVTKSFNRGEC | 102 control = 100 | 83.5 control = 100 | 
GpH7-B3 variant P271_02A/GpL16-k0 (Ho Ab) (antibody, human IgG1, kappa, Ho Ab: alteration in both H chains) heavy: not shown light: DIVMTQSPLSLPVTPGEPASISCQASESLVHSNRNTYLHWYLQKPGQSPQLLIYKVSNRFSGVPDRFSGSGSGTDFTLKISRVEAEDVGVYYCSQNTHVPPTFGQGTKVEIERTVAAPSVFIFPPSDEQLKSGTASVVCLLNNFYPREAKVQWKVDNALQSGNSQESVTEQDSKDSTYSLSSTLTLSKADYEKHKVYACEVTHQGLSSPVTKSFNRGEC |  |  | 102 relative (control = 100)
GpH7-B3 variant E269_06M/GpL16-k0 (Ho Ab) (antibody, human IgG1, kappa, Ho Ab: alteration in both H chains) heavy: not shown light: DIVMTQSPLSLPVTPGEPASISCQASESLVHSNRNTYLHWYLQKPGQSPQLLIYKVSNRFSGVPDRFSGSGSGTDFTLKISRVEAEDVGVYYCSQNTHVPPTFGQGTKVEIERTVAAPSVFIFPPSDEQLKSGTASVVCLLNNFYPREAKVQWKVDNALQSGNSQESVTEQDSKDSTYSLSSTLTLSKADYEKHKVYACEVTHQGLSSPVTKSFNRGEC |  |  | 101 relative (control = 100)
GpH7-B3 variant E269_04F/GpL16-k0 (Ho Ab) (antibody, human IgG1, kappa, Ho Ab: alteration in both H chains) heavy: not shown light: DIVMTQSPLSLPVTPGEPASISCQASESLVHSNRNTYLHWYLQKPGQSPQLLIYKVSNRFSGVPDRFSGSGSGTDFTLKISRVEAEDVGVYYCSQNTHVPPTFGQGTKVEIERTVAAPSVFIFPPSDEQLKSGTASVVCLLNNFYPREAKVQWKVDNALQSGNSQESVTEQDSKDSTYSLSSTLTLSKADYEKHKVYACEVTHQGLSSPVTKSFNRGEC |  |  | 102 relative (control = 100)
GpH7-B3 variant A330_08L/GpL16-k0 (Ho Ab) (antibody, human IgG1, kappa, Ho Ab: alteration in both H chains; also called GpH7-B3-20-08L/GpL16-k0) heavy: not shown light: DIVMTQSPLSLPVTPGEPASISCQASESLVHSNRNTYLHWYLQKPGQSPQLLIYKVSNRFSGVPDRFSGSGSGTDFTLKISRVEAEDVGVYYCSQNTHVPPTFGQGTKVEIERTVAAPSVFIFPPSDEQLKSGTASVVCLLNNFYPREAKVQWKVDNALQSGNSQESVTEQDSKDSTYSLSSTLTLSKADYEKHKVYACEVTHQGLSSPVTKSFNRGEC |  |  | 106 relative (control = 100)
GpH7-B3 variant A330_09D/GpL16-k0 (Ho Ab) (antibody, human IgG1, kappa, Ho Ab: alteration in both H chains) heavy: not shown light: DIVMTQSPLSLPVTPGEPASISCQASESLVHSNRNTYLHWYLQKPGQSPQLLIYKVSNRFSGVPDRFSGSGSGTDFTLKISRVEAEDVGVYYCSQNTHVPPTFGQGTKVEIERTVAAPSVFIFPPSDEQLKSGTASVVCLLNNFYPREAKVQWKVDNALQSGNSQESVTEQDSKDSTYSLSSTLTLSKADYEKHKVYACEVTHQGLSSPVTKSFNRGEC |  |  | 108 relative (control = 100)
GpH7-A5/GpH7-B3 variant Y296_16H/GpL16-k0 (antibody, human IgG1, kappa, Heterodimerized IgG1, mutation in the GpH7-B3 chain only; also called He Ab) heavy 1: not shown heavy 2: not shown light: DIVMTQSPLSLPVTPGEPASISCQASESLVHSNRNTYLHWYLQKPGQSPQLLIYKVSNRFSGVPDRFSGSGSGTDFTLKISRVEAEDVGVYYCSQNTHVPPTFGQGTKVEIERTVAAPSVFIFPPSDEQLKSGTASVVCLLNNFYPREAKVQWKVDNALQSGNSQESVTEQDSKDSTYSLSSTLTLSKADYEKHKVYACEVTHQGLSSPVTKSFNRGEC | 104 control = 100 | 92.2 control = 100 | 
GpH7-B3 variant A330_14T/GpL16-k0 (Ho Ab) (antibody, human IgG1, kappa, Ho Ab: alteration in both H chains) heavy: not shown light: DIVMTQSPLSLPVTPGEPASISCQASESLVHSNRNTYLHWYLQKPGQSPQLLIYKVSNRFSGVPDRFSGSGSGTDFTLKISRVEAEDVGVYYCSQNTHVPPTFGQGTKVEIERTVAAPSVFIFPPSDEQLKSGTASVVCLLNNFYPREAKVQWKVDNALQSGNSQESVTEQDSKDSTYSLSSTLTLSKADYEKHKVYACEVTHQGLSSPVTKSFNRGEC |  |  | 105 relative (control = 100)
GpH7-B3 variant A327_09D/GpL16-k0 (Ho Ab) (antibody, human IgG1, kappa, Ho Ab: alteration in both H chains) heavy: not shown light: DIVMTQSPLSLPVTPGEPASISCQASESLVHSNRNTYLHWYLQKPGQSPQLLIYKVSNRFSGVPDRFSGSGSGTDFTLKISRVEAEDVGVYYCSQNTHVPPTFGQGTKVEIERTVAAPSVFIFPPSDEQLKSGTASVVCLLNNFYPREAKVQWKVDNALQSGNSQESVTEQDSKDSTYSLSSTLTLSKADYEKHKVYACEVTHQGLSSPVTKSFNRGEC |  |  | 102 relative (control = 100)
GpH7-A5/GpH7-B3 variant Y300_07I/GpL16-k0 (antibody, human IgG1, kappa, Heterodimerized IgG1, mutation in the GpH7-B3 chain only; also called He Ab) heavy 1: not shown heavy 2: not shown light: DIVMTQSPLSLPVTPGEPASISCQASESLVHSNRNTYLHWYLQKPGQSPQLLIYKVSNRFSGVPDRFSGSGSGTDFTLKISRVEAEDVGVYYCSQNTHVPPTFGQGTKVEIERTVAAPSVFIFPPSDEQLKSGTASVVCLLNNFYPREAKVQWKVDNALQSGNSQESVTEQDSKDSTYSLSSTLTLSKADYEKHKVYACEVTHQGLSSPVTKSFNRGEC | 108 control = 100 | 74.5 control = 100 | 
GpH7-A5/GpH7-B3 variant S324_20W/GpL16-k0 (antibody, human IgG1, kappa, Heterodimerized IgG1, mutation in the GpH7-B3 chain only; also called He Ab) heavy 1: not shown heavy 2: not shown light: DIVMTQSPLSLPVTPGEPASISCQASESLVHSNRNTYLHWYLQKPGQSPQLLIYKVSNRFSGVPDRFSGSGSGTDFTLKISRVEAEDVGVYYCSQNTHVPPTFGQGTKVEIERTVAAPSVFIFPPSDEQLKSGTASVVCLLNNFYPREAKVQWKVDNALQSGNSQESVTEQDSKDSTYSLSSTLTLSKADYEKHKVYACEVTHQGLSSPVTKSFNRGEC | 103 control = 100 | 87.5 control = 100 | 
GpH7-A5/GpH7-B3 variant Y300_06M/GpL16-k0 (antibody, human IgG1, kappa, Heterodimerized IgG1, mutation in the GpH7-B3 chain only; also called He Ab) heavy 1: not shown heavy 2: not shown light: DIVMTQSPLSLPVTPGEPASISCQASESLVHSNRNTYLHWYLQKPGQSPQLLIYKVSNRFSGVPDRFSGSGSGTDFTLKISRVEAEDVGVYYCSQNTHVPPTFGQGTKVEIERTVAAPSVFIFPPSDEQLKSGTASVVCLLNNFYPREAKVQWKVDNALQSGNSQESVTEQDSKDSTYSLSSTLTLSKADYEKHKVYACEVTHQGLSSPVTKSFNRGEC | 105 control = 100 | 84.3 control = 100 | 
GpH7-A5/GpH7-B3 variant Y300_08L/GpL16-k0 (antibody, human IgG1, kappa, Heterodimerized IgG1, mutation in the GpH7-B3 chain only; also called He Ab) heavy 1: not shown heavy 2: not shown light: DIVMTQSPLSLPVTPGEPASISCQASESLVHSNRNTYLHWYLQKPGQSPQLLIYKVSNRFSGVPDRFSGSGSGTDFTLKISRVEAEDVGVYYCSQNTHVPPTFGQGTKVEIERTVAAPSVFIFPPSDEQLKSGTASVVCLLNNFYPREAKVQWKVDNALQSGNSQESVTEQDSKDSTYSLSSTLTLSKADYEKHKVYACEVTHQGLSSPVTKSFNRGEC | 108 control = 100 | 73.6 control = 100 | 
GpH7-A5/GpH7-B3 variant Y296_09D/GpL16-k0 (antibody, human IgG1, kappa, Heterodimerized IgG1, mutation in the GpH7-B3 chain only; also called He Ab) heavy 1: not shown heavy 2: not shown light: DIVMTQSPLSLPVTPGEPASISCQASESLVHSNRNTYLHWYLQKPGQSPQLLIYKVSNRFSGVPDRFSGSGSGTDFTLKISRVEAEDVGVYYCSQNTHVPPTFGQGTKVEIERTVAAPSVFIFPPSDEQLKSGTASVVCLLNNFYPREAKVQWKVDNALQSGNSQESVTEQDSKDSTYSLSSTLTLSKADYEKHKVYACEVTHQGLSSPVTKSFNRGEC | 104 control = 100 | 98.9 control = 100 | 
GpH7-A5/GpH7-B3 variant Y296_18N/GpL16-k0 (antibody, human IgG1, kappa, Heterodimerized IgG1, mutation in the GpH7-B3 chain only; also called He Ab) heavy 1: not shown heavy 2: not shown light: DIVMTQSPLSLPVTPGEPASISCQASESLVHSNRNTYLHWYLQKPGQSPQLLIYKVSNRFSGVPDRFSGSGSGTDFTLKISRVEAEDVGVYYCSQNTHVPPTFGQGTKVEIERTVAAPSVFIFPPSDEQLKSGTASVVCLLNNFYPREAKVQWKVDNALQSGNSQESVTEQDSKDSTYSLSSTLTLSKADYEKHKVYACEVTHQGLSSPVTKSFNRGEC | 104 control = 100 | 91.5 control = 100 | 
GpH7-A5/GpH7-B3 variant Y296_04F/GpL16-k0 (antibody, human IgG1, kappa, Heterodimerized IgG1, mutation in the GpH7-B3 chain only; also called He Ab) heavy 1: not shown heavy 2: not shown light: DIVMTQSPLSLPVTPGEPASISCQASESLVHSNRNTYLHWYLQKPGQSPQLLIYKVSNRFSGVPDRFSGSGSGTDFTLKISRVEAEDVGVYYCSQNTHVPPTFGQGTKVEIERTVAAPSVFIFPPSDEQLKSGTASVVCLLNNFYPREAKVQWKVDNALQSGNSQESVTEQDSKDSTYSLSSTLTLSKADYEKHKVYACEVTHQGLSSPVTKSFNRGEC | 100 control = 100 | 99.2 control = 100 | 
